# Source: US20240209076A1 (KODIAK SCIENCES, published 2024)
# Biological target: recombinant human IL-6 (human, UniProt P05231 30-212)
# Assay: SPR, IL-6 on CM5 chip, Fab lysate, 25 C
# Experimental: Three ranges of antigen density (100-150 RU, 300-400 RU, 400-600 RU) were obtained by using variable flow times for each chip channel, later blocked with ethanolamine. Supernatants of the 96-well filtered culture lysates were injected at 50 μL/min for 120 seconds. Fitting of dissociation curves (300 seconds) to single exponential decay curve was used for the determination of dissociation rates (koff). Chip surfaces were regenerated with 10 mM Glycine pH 1.7 solution injected at 50 μL/min during 60 seconds after every cycle of sample binding and dissociation.
# Sequence of recombinant human IL-6 (P05231 30-212 limits assumed): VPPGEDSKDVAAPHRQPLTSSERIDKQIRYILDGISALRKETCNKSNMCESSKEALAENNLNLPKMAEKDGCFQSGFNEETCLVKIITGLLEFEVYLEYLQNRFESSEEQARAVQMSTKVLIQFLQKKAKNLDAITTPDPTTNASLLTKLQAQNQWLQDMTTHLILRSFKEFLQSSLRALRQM
row,Binder,koff
1,"anti-IL-6 Fab, heavy chain I108F (Fab, V domains shown, see m39) VH: EVQLVESGGGLVQPGGSLRLSCAASGFTFSPFAMSWVRQAPGKGLEWVAKISPGGSWTYYSDTVTGRFTFSLDTSKSTAYLQMNSLRAEDTAVYYCARQLWGYYALDFWGQGTLVTVSS VL: DIQLTQSPSSLSASVGDRVTITCSASISVSYMYWYQQKPGKAPKLLIYDMSNLASGVPSRFSGSGSGTDFTLTISSLQPEDFATYYCMQWSGYPYTFGQGTKVEIK",0.0034 s⁻¹
2,"anti-IL-6 Fab, heavy chain S30Y (Fab, V domains shown, see m39) VH: EVQLVESGGGLVQPGGSLRLSCAASGFTFYPFAMSWVRQAPGKGLEWVAKISPGGSWTYYSDTVTGRFTFSLDTSKSTAYLQMNSLRAEDTAVYYCARQLWGYYALDIWGQGTLVTVSS VL: DIQLTQSPSSLSASVGDRVTITCSASISVSYMYWYQQKPGKAPKLLIYDMSNLASGVPSRFSGSGSGTDFTLTISSLQPEDFATYYCMQWSGYPYTFGQGTKVEIK",0.00352 s⁻¹
3,"anti-IL-6 Fab, heavy chain M34W (Fab, V domains shown, see m39) VH: EVQLVESGGGLVQPGGSLRLSCAASGFTFSPFAWSWVRQAPGKGLEWVAKISPGGSWTYYSDTVTGRFTFSLDTSKSTAYLQMNSLRAEDTAVYYCARQLWGYYALDIWGQGTLVTVSS VL: DIQLTQSPSSLSASVGDRVTITCSASISVSYMYWYQQKPGKAPKLLIYDMSNLASGVPSRFSGSGSGTDFTLTISSLQPEDFATYYCMQWSGYPYTFGQGTKVEIK",0.00397 s⁻¹
4,"anti-IL-6 Fab, heavy chain S56H (Fab, V domains shown, see m39) VH: EVQLVESGGGLVQPGGSLRLSCAASGFTFSPFAMSWVRQAPGKGLEWVAKISPGGHWTYYSDTVTGRFTFSLDTSKSTAYLQMNSLRAEDTAVYYCARQLWGYYALDIWGQGTLVTVSS VL: DIQLTQSPSSLSASVGDRVTITCSASISVSYMYWYQQKPGKAPKLLIYDMSNLASGVPSRFSGSGSGTDFTLTISSLQPEDFATYYCMQWSGYPYTFGQGTKVEIK",0.0409 s⁻¹
5,"anti-IL-6 Fab, heavy chain S30G (Fab, V domains shown, see m39) VH: EVQLVESGGGLVQPGGSLRLSCAASGFTFGPFAMSWVRQAPGKGLEWVAKISPGGSWTYYSDTVTGRFTFSLDTSKSTAYLQMNSLRAEDTAVYYCARQLWGYYALDIWGQGTLVTVSS VL: DIQLTQSPSSLSASVGDRVTITCSASISVSYMYWYQQKPGKAPKLLIYDMSNLASGVPSRFSGSGSGTDFTLTISSLQPEDFATYYCMQWSGYPYTFGQGTKVEIK",0.00377 s⁻¹
6,"anti-IL-6 Fab, heavy chain S35Q (Fab, V domains shown, see m39) VH: EVQLVESGGGLVQPGGSLRLSCAASGFTFSPFAMQWVRQAPGKGLEWVAKISPGGSWTYYSDTVTGRFTFSLDTSKSTAYLQMNSLRAEDTAVYYCARQLWGYYALDIWGQGTLVTVSS VL: DIQLTQSPSSLSASVGDRVTITCSASISVSYMYWYQQKPGKAPKLLIYDMSNLASGVPSRFSGSGSGTDFTLTISSLQPEDFATYYCMQWSGYPYTFGQGTKVEIK",0.00354 s⁻¹
7,"anti-IL-6 Fab, heavy chain S30W (Fab, V domains shown, see m39) VH: EVQLVESGGGLVQPGGSLRLSCAASGFTFWPFAMSWVRQAPGKGLEWVAKISPGGSWTYYSDTVTGRFTFSLDTSKSTAYLQMNSLRAEDTAVYYCARQLWGYYALDIWGQGTLVTVSS VL: DIQLTQSPSSLSASVGDRVTITCSASISVSYMYWYQQKPGKAPKLLIYDMSNLASGVPSRFSGSGSGTDFTLTISSLQPEDFATYYCMQWSGYPYTFGQGTKVEIK",0.00369 s⁻¹
8,"anti-IL-6 Fab, heavy chain S35H (Fab, V domains shown, see m39) VH: EVQLVESGGGLVQPGGSLRLSCAASGFTFSPFAMHWVRQAPGKGLEWVAKISPGGSWTYYSDTVTGRFTFSLDTSKSTAYLQMNSLRAEDTAVYYCARQLWGYYALDIWGQGTLVTVSS VL: DIQLTQSPSSLSASVGDRVTITCSASISVSYMYWYQQKPGKAPKLLIYDMSNLASGVPSRFSGSGSGTDFTLTISSLQPEDFATYYCMQWSGYPYTFGQGTKVEIK",0.00392 s⁻¹
9,"anti-IL-6 Fab, heavy chain S61A (Fab, V domains shown, see m39) VH: EVQLVESGGGLVQPGGSLRLSCAASGFTFSPFAMSWVRQAPGKGLEWVAKISPGGSWTYYADTVTGRFTFSLDTSKSTAYLQMNSLRAEDTAVYYCARQLWGYYALDIWGQGTLVTVSS VL: DIQLTQSPSSLSASVGDRVTITCSASISVSYMYWYQQKPGKAPKLLIYDMSNLASGVPSRFSGSGSGTDFTLTISSLQPEDFATYYCMQWSGYPYTFGQGTKVEIK",0.00604 s⁻¹
10,"anti-IL-6 Fab, heavy chain S61K (Fab, V domains shown, see m39) VH: EVQLVESGGGLVQPGGSLRLSCAASGFTFSPFAMSWVRQAPGKGLEWVAKISPGGSWTYYKDTVTGRFTFSLDTSKSTAYLQMNSLRAEDTAVYYCARQLWGYYALDIWGQGTLVTVSS VL: DIQLTQSPSSLSASVGDRVTITCSASISVSYMYWYQQKPGKAPKLLIYDMSNLASGVPSRFSGSGSGTDFTLTISSLQPEDFATYYCMQWSGYPYTFGQGTKVEIK",0.00558 s⁻¹
11,"anti-IL-6 Fab, heavy chain S56R (Fab, V domains shown, see m39) VH: EVQLVESGGGLVQPGGSLRLSCAASGFTFSPFAMSWVRQAPGKGLEWVAKISPGGRWTYYSDTVTGRFTFSLDTSKSTAYLQMNSLRAEDTAVYYCARQLWGYYALDIWGQGTLVTVSS VL: DIQLTQSPSSLSASVGDRVTITCSASISVSYMYWYQQKPGKAPKLLIYDMSNLASGVPSRFSGSGSGTDFTLTISSLQPEDFATYYCMQWSGYPYTFGQGTKVEIK",0.00509 s⁻¹
12,"anti-IL-6 Fab, heavy chain L106F (Fab, V domains shown, see m39) VH: EVQLVESGGGLVQPGGSLRLSCAASGFTFSPFAMSWVRQAPGKGLEWVAKISPGGSWTYYSDTVTGRFTFSLDTSKSTAYLQMNSLRAEDTAVYYCARQLWGYYAFDIWGQGTLVTVSS VL: DIQLTQSPSSLSASVGDRVTITCSASISVSYMYWYQQKPGKAPKLLIYDMSNLASGVPSRFSGSGSGTDFTLTISSLQPEDFATYYCMQWSGYPYTFGQGTKVEIK",0.00601 s⁻¹
13,"anti-IL-6 Fab, heavy chain R98G (Fab, V domains shown, see m39) VH: EVQLVESGGGLVQPGGSLRLSCAASGFTFSPFAMSWVRQAPGKGLEWVAKISPGGSWTYYSDTVTGRFTFSLDTSKSTAYLQMNSLRAEDTAVYYCAGQLWGYYALDIWGQGTLVTVSS VL: DIQLTQSPSSLSASVGDRVTITCSASISVSYMYWYQQKPGKAPKLLIYDMSNLASGVPSRFSGSGSGTDFTLTISSLQPEDFATYYCMQWSGYPYTFGQGTKVEIK",0.0048 s⁻¹

# Continued, values first:
row,koff,Binder
1,0.0039 s⁻¹,"anti-IL-6 Fab, heavy chain T28Y (Fab, V domains shown, see m39) VH: EVQLVESGGGLVQPGGSLRLSCAASGFYFSPFAMSWVRQAPGKGLEWVAKISPGGSWTYYSDTVTGRFTFSLDTSKSTAYLQMNSLRAEDTAVYYCARQLWGYYALDIWGQGTLVTVSS VL: DIQLTQSPSSLSASVGDRVTITCSASISVSYMYWYQQKPGKAPKLLIYDMSNLASGVPSRFSGSGSGTDFTLTISSLQPEDFATYYCMQWSGYPYTFGQGTKVEIK"
2,0.00396 s⁻¹,"anti-IL-6 Fab, heavy chain T28A (Fab, V domains shown, see m39) VH: EVQLVESGGGLVQPGGSLRLSCAASGFAFSPFAMSWVRQAPGKGLEWVAKISPGGSWTYYSDTVTGRFTFSLDTSKSTAYLQMNSLRAEDTAVYYCARQLWGYYALDIWGQGTLVTVSS VL: DIQLTQSPSSLSASVGDRVTITCSASISVSYMYWYQQKPGKAPKLLIYDMSNLASGVPSRFSGSGSGTDFTLTISSLQPEDFATYYCMQWSGYPYTFGQGTKVEIK"
3,0.00492 s⁻¹,"anti-IL-6 Fab, heavy chain T58K (Fab, V domains shown, see m39) VH: EVQLVESGGGLVQPGGSLRLSCAASGFTFSPFAMSWVRQAPGKGLEWVAKISPGGSWKYYSDTVTGRFTFSLDTSKSTAYLQMNSLRAEDTAVYYCARQLWGYYALDIWGQGTLVTVSS VL: DIQLTQSPSSLSASVGDRVTITCSASISVSYMYWYQQKPGKAPKLLIYDMSNLASGVPSRFSGSGSGTDFTLTISSLQPEDFATYYCMQWSGYPYTFGQGTKVEIK"
4,0.00408 s⁻¹,"anti-IL-6 Fab, heavy chain T28K (Fab, V domains shown, see m39) VH: EVQLVESGGGLVQPGGSLRLSCAASGFKFSPFAMSWVRQAPGKGLEWVAKISPGGSWTYYSDTVTGRFTFSLDTSKSTAYLQMNSLRAEDTAVYYCARQLWGYYALDIWGQGTLVTVSS VL: DIQLTQSPSSLSASVGDRVTITCSASISVSYMYWYQQKPGKAPKLLIYDMSNLASGVPSRFSGSGSGTDFTLTISSLQPEDFATYYCMQWSGYPYTFGQGTKVEIK"
5,0.00425 s⁻¹,"anti-IL-6 Fab, heavy chain T58R (Fab, V domains shown, see m39) VH: EVQLVESGGGLVQPGGSLRLSCAASGFTFSPFAMSWVRQAPGKGLEWVAKISPGGSWRYYSDTVTGRFTFSLDTSKSTAYLQMNSLRAEDTAVYYCARQLWGYYALDIWGQGTLVTVSS VL: DIQLTQSPSSLSASVGDRVTITCSASISVSYMYWYQQKPGKAPKLLIYDMSNLASGVPSRFSGSGSGTDFTLTISSLQPEDFATYYCMQWSGYPYTFGQGTKVEIK"
6,0.0562 s⁻¹,"anti-IL-6 Fab, heavy chain T58V (Fab, V domains shown, see m39) VH: EVQLVESGGGLVQPGGSLRLSCAASGFTFSPFAMSWVRQAPGKGLEWVAKISPGGSWVYYSDTVTGRFTFSLDTSKSTAYLQMNSLRAEDTAVYYCARQLWGYYALDIWGQGTLVTVSS VL: DIQLTQSPSSLSASVGDRVTITCSASISVSYMYWYQQKPGKAPKLLIYDMSNLASGVPSRFSGSGSGTDFTLTISSLQPEDFATYYCMQWSGYPYTFGQGTKVEIK"
7,0.00428 s⁻¹,"anti-IL-6 Fab, heavy chain T28E (Fab, V domains shown, see m39) VH: EVQLVESGGGLVQPGGSLRLSCAASGFEFSPFAMSWVRQAPGKGLEWVAKISPGGSWTYYSDTVTGRFTFSLDTSKSTAYLQMNSLRAEDTAVYYCARQLWGYYALDIWGQGTLVTVSS VL: DIQLTQSPSSLSASVGDRVTITCSASISVSYMYWYQQKPGKAPKLLIYDMSNLASGVPSRFSGSGSGTDFTLTISSLQPEDFATYYCMQWSGYPYTFGQGTKVEIK"
8,0.00585 s⁻¹,"anti-IL-6 Fab, heavy chain S61R (Fab, V domains shown, see m39) VH: EVQLVESGGGLVQPGGSLRLSCAASGFTFSPFAMSWVRQAPGKGLEWVAKISPGGSWTYYRDTVTGRFTFSLDTSKSTAYLQMNSLRAEDTAVYYCARQLWGYYALDIWGQGTLVTVSS VL: DIQLTQSPSSLSASVGDRVTITCSASISVSYMYWYQQKPGKAPKLLIYDMSNLASGVPSRFSGSGSGTDFTLTISSLQPEDFATYYCMQWSGYPYTFGQGTKVEIK"
